Test [1] concerns the target T1, Recombinant mouse CTLA-4/human IgG1 chimera (R&D Systems) (mouse; human, UniProt P09793 36-162, limits assumed).
T1 construct: Bought reagent; also called recombinant mCTLA-4/Fc; recombinant CTLA4 protein; not shown: human IgG1 portion (Fc) of the bought chimera
Put plainly: ELISA: mouse CTLA-4/human IgG1 chimera coated at 1 or 5 µg/mL; HEK293 conditioned medium with 9H10-scFv at 168 ng/mL; anti-mouse IgG-HRP, OD 450 nm. On the procedure:
(§1) Plasmid encoded anti-CTLA4 scFv bound to recombinant CTLA4 protein. Transfection-derived secreted anti-CTLA4 (scFv) were evaluated for their binding capacity to CTLA-4. Recombinant mouse CTLA-4/human IgG1 chimera (R&D Systems) were immobilized in 96-well plates (1 or 5 μg/mL, or […]) for 18 hr at room temperature. Wells were washed three times with 0.1% Tween in PBS and blocked with 1% BSA in PBS. Conditioned medium from HEK293 cells transfected with 9H10-scFv (168 ng/mL) or 9D9-scFv (130 ng/mL) was added to the wells, and incubated for 2 h at room temperature. Wells were washed three times, and anti-mouse IgG-horseradish peroxidase (Jackson ImmunoResearch, 0.2 μg/mL) were added and incubated for 1.5 hours at room temperature. Wells were again washed three times, developed with HRP Substrate Reagent (R&D Systems) and stopped with Stop Solution, 2N sulfuric acid (R&D Systems). Optical density of each well was measured at 450 nm.
On the technique in general: An ELISA detects its analyte on a solid surface through an enzyme-linked reagent.

For test [2], the target named is T1, Recombinant mouse CTLA-4/human IgG1 …. Put plainly: ELISA: mouse CTLA-4/human IgG1 chimera coated at 1 or 5 µg/mL; HEK293 conditioned medium with 9D9-scFv at 130 ng/mL; anti-mouse IgG-HRP, OD 450 nm. How it is done:
as §1

B1: 9H10-scFv (Igκ-HA-9H10 VLC-Linker-9H10 VHC-Linker-mIgG1 Fc domain, anti-CTLA-4 scFv) (scFv)
scFv: YPYDVPDYAGAQPARSDIVMTQSPSSLAVSVGEKVTISCKSSQSLLYGSSHYLAWYQQKVGQSPKLLIYWASTRHTGIPDRFIGSGSGTDFTLSLSSVQAEDMADYFCQQYFSTPWTFGAGTRVEIKSGSGGGSGGGSGGGSQVQLLQSESELVKPGASVKLSCKTSGYTFTDYYIHWVKQKPGQGLEWIGLINPNNDGTNYNQKFQGKATLTADKSSSTAYMELNSLTFDDSVIYFCARASSRLRMARTTSDYYAMDYWGQGIQVTVSSVDSSGSGGCKPCICTVPEVSSVFIFPPKPKDVLTITLTPKVTCVVVDISKDDPEVQFSWFVDDVEVHTAQTQPREEQFNSTFRSVSELPIMHQDWLNGKEFKCRVNSAAFPAPIEKTISKTKGRPKAPQVYTIPPPKEQMAKDKVSLTCMITDFFPEDITVEWQWNGQPAENYKNTQPIMDTDGSYFVYSKLNVQKSNWEAGNTFTCSVLHEGLHNHHTEKSLSHSPGK
notes: scFv (VL-linker-VH) with an N-terminal HA tag, fused to a mouse IgG1 Fc domain; It was secreted into conditioned medium of transfected HEK293 cells; also called plasmid encoded anti-CTLA4 scFv
As for B1, in test [1], the binding result is given as “binds”.

B2: 9D9-scFv (Igκ-HA-9D9 VLC-Linker-9D9 VHC-Linker-mIgG1 Fc domain, anti-CTLA-4 scFv) (scFv)
scFv: YPYDVPDYAGAQPARSDIVMTQTTLSLPVSLGDQASISCRSSQSIVHSNGNTYLEWYLQKPGQSPKLLIYKVSNRFSGVPDRFSGSGSGTDFTLKISRVEAEDLGVYYCFQGSHVPYTFGGGTKLEIKRADAAPTVSGSGGGSGGGSGGGSEAKLQESGPVLVKPGASVKMSCKASGYTFTDYYMNWVKQSHGKSLEWIGVINPYNGDTSYNQKFKGKATLTVDKSSSTAYMELNSLTSEDSAVYYCARYYGSWFAYWGQGTLITVSTAKTTPPSVYPLAPVDSSGSGGCKPCICTVPEVSSVFIFPPKPKDVLTITLTPKVTCVVVDISKDDPEVQFSWFVDDVEVHTAQTQPREEQFNSTFRSVSELPIMHQDWLNGKEFKCRVNSAAFPAPIEKTISKTKGRPKAPQVYTIPPPKEQMAKDKVSLTCMITDFFPEDITVEWQWNGQPAENYKNTQPIMDTDGSYFVYSKLNVQKSNWEAGNTFTCSVLHEGLHNHHTEKSLSHSPGK
notes: as for B1
For B2, the binding result in test [2] was “binds”.
